experiment: soluble on expression in E. coli; label from the status in PepcDB or PDB records

Sequence	soluble on expression in E. coli
MGSDKIHHHHHHCQNAAATDTNQSVSAKLQQQALSSSLAYDIVESLTVEVGPRLAGSDKDLVAVEWAEKKLGSLGFDKVYKEAVQVPVWQRGEAKANIVSPYAQPLVITALGGSVGTPEEGISAPIVRFETLDELKQADPSLVAGKIVFIDHITPRFKTGKGYGMTVGGRSRGAIAAAEKGALAIVIRSIGTDHDRMAHTGMMRYQEGVDKIPAAAMSNPDADLVTLMLKRDPNVVLHLEMSPKNLGYATSYNVIAEVTGSSKPDEIVLIGAHLDSWDEGTGAIDDGAGVAIVTAAGHYISQLRVKPARTVRVVLYAAEELGLIGGKSYAKDHQAELAQHYIAAESD	not soluble
MGSDKIHHHHHHDAVRTYYAKAISANEKTNSVCMFVKEAEKWAMDWDEKAKDPQFQKPPLFGLPMSLKECVPLEGYDQTRGFVQDTFRPTETDGVLVQQLKKLGAIPYVQTNVPQSLLSYNCSNPVYGTTNHPMDKTRTSGGSSGGESALISADGSLLGIGGDVGGSIRIPCAYTGTTGIKPSHLRFSHRGVCGSVPGRPLINSNDGPMSTRVETNVDFLRTVWADTWITEQDPYVPPVTWNEEAYKSDKKLKIGYYVDDGWFTPTPVCQRAVMEAKQILEDSGHTLVPFRPPRVPEVLRMFLRAVCVDAGTFLSKKLMNDIIDPLLYTQVVLWMVPVPIQRFLSSIIKVFFPRLGNLMDAMTLSTVELRNTYADIEAYRSEMAGLMVDQKIDALLCPVTVSPALPHVSPSKLFAGTSYTGIFNLLDYAAGSVNVTHVTKQDELDLEDYEESDPWYALAKKGSRGTIGFPIGVQVATPPYKEETCLRIMREIERGVTGK	not soluble
MGSDKIHHHHHHDEEPSDKGSTSPQEPVYTTFTDAGEVVVPGVLPANFTPRSVRVKGDTLFVANTNAADRSVLLLNLTTGELIGRIDSWVRKGVKETFNAEIGDMAVSDRYIFVGMYNSRINIFDRRTLQFVNAIGRSDGKWGDDIYSMTHCYGLRECGERLMVRDKNTIRGYWIYEAVTEPAFRVPWIGKVKVPEGVGYDYQARIHGMAEYDGRMYLTDWYNKSVQVFTPSKMEIVFGEETHITSDAVFKYDDIQPLGLLAYGGELLMSVQKSGKIQRYDPETGDLLGVLAEFPGKEIGRMEIARGMLYYIDLKAGKLMKAKGE	not soluble
MGSDKIHHHHHHDFEELNTNPFEMTDEMGIRDGVAVGGAVMAMQRAVITVGTQADDTEAINQYQVAYNLSADSWSGFFGQNNNWYSGSNNTTYYLQDNWVAATYTNSYTTLLSSWKKIKQESEKNETPEIFALAQILKISAWHKTLESFGPIPYTHAGEPALVIPFDSEQVAFNAMFADLTAAIEALTVRAEQGATIVADYDAVYAGDTRKWVKYANSLMLRLAMRISYADETTAQKYARQALNHPFGVMTSKSDEAQMSTGAGMVFRNNIDWLANQYNECRMGSSMFSYLLGYQDPRLSAYFEASPSAYAVAAFDGKNYQAVPPGNANQQNTIYTDFSKPNITSNTPTYWMRASEVYFLRAEAALRWGSEFGDAEALYEQGVATSFDENGISSSVDDYLAFGLTPIAHNMRASYYSYNAAAPTTATPAFSGGTEQKLEKIMIQKWIALYPNGHEAWTEWRRTGYPKLNQVQTNRGQGVTREGGIRRMVYPVSFYQSAEDRANYEEALKLLGGLDKDKATTQLWWDCKNKIY	not soluble
MGSDKIHHHHHHDPVSDITDLNYWKTPEQFDSFVFGLHSRFRSHSWNMFLLGEARSDVFGGIPFGGEATQGMERFPYNTLNAENPGISGFGDLYQNINQMNLFISRTLHTDVLTESARNYYLGQVYGLRAYYMYQLYRSWGDVVFTEEPSLGFEVGKLAKAATPAAEIFEQVKKDIESSLSYFGSDYTIKEKKSLWSKAATLMLKADVYLWSAHRDGGEGDARTAKNALVDIQNNISRSNLDLMDTYQGVFAYDNKGNKEIIFTIHNELFEYNLWNGNNDLFPQADYLGKFYNADGTLINTSVENNFGIMRLMVKLENFKKFLPGDTRRDVTLKDVYNKVENGKLELVGVYPHKYWGVMNGSTRVRCDDYPIYRYSDLLLMLAEAKVLLGEDPATEINRVRRRAFGDAYDASTVGFPNQEVDKRPADAVLQERLFEFMLEGKRWYDLRRFGDSYVLDYTPAEPARLLWPINQGALTNNPLLKQTVGY	not soluble
MGSDKIHHHHHHEIMTRENNDQETLKLIQENKLQAEGNIFANVSALKDQNKRFQDECHSEKKQFGIKVEETTAQNNDEVLKESAQTNHIKLGNQQNKLTHESRIMALKEGNTVTKIHVGQAQEKDRKETNFIAAVNRMIQAGRDLPETVDSLEGHTLKLRYGSDASALESDIGLCEIIVSSINRKISKLQDSCIDLSNYAIADHRMVQEMQKNALGINESVRRIQSHLTQFRVSLSDNPITNSMELYKKVQTESHSLSTKINSMPVVTETNHAVAYLRKQRETLALNLPTVA	not soluble
MGSDKIHHHHHHEKAVTHSESKEFKPETVKIGEDGELNIVPLYAPYQTYLKASLKADTSETDSKNYAEYVLRYIDKIGEKENFDPTTLETFFMLKATAYEQDMLNQTNELMKQHDEIKDIITKNYSASYEALPKKKATIFIAPSNLEFWSMTDPLAGVSGAAFQDSIIIQLNPNFDKEVLAYTIAHEYHHLVLNDTPELSRIDTSLDSVIFEGKADAFADQIVTDVSPPWNIPMDDTTKKHVARLIGNGEADYQEITMGNTEKDIPLWSRYSLGRDILTHHLKANPDLSIKTWTYEENHAILNGYKYQKLLE	not soluble
MGSDKIHHHHHHENLYFQGMNIETLMIKNPPILSKEDRLGSAFKKINEGGIGRIIVANEKIEGLLTTRDLLSTVESYCKDSCSQGDLYHISTTPIIDYMTPNPVTVYNTSDEFTAINIMVTRNFGSLPVVDINDKPVGIVTEREFLLLYKDLDEIFPVKVFMSTKVQTIYKEVRLDQAVKLMLRRGFRRLPVIDDDNKVVGIVTVVNAIKQLAKAVDKLDPDYFYGKVVKDVMVTNLVTIDELASVNRAAAEMIVKRIGSLLILNKDNTIRGIITERDLLIALHHILVMEKFKEKL	soluble
MGSDKIHHHHHHETTSTQTVDEQAVFNDTQSAMLAVNGLHKLMWTGDLSSSAFYGGYDMLMIWYEVMGDDLVYTYSNAQFQKQAQWSSHRNATIGSATHFYRLLQYFISNSSMIIDNIDAAEGLESERNYIKGQAHFYRAFAYFTMVQMYGGRYKAEGDNTQLGVVIRNDNSTEPRARASVEEVYTQINEDIDLAIQLLGATEEKRTNKSHIDLHVARGLKARILLTQGKWLEAAEMAKLVVDLSGAKLQDDTYTTLNDRFSDQSNTEWLWGSNPLLQQAPNLTHFHGYMSNEIISYNGNTPRAIYNKLYDKISDTDVRKGIWFPRATDPNTLPRPIRAECNSKAYANYMANKFIVSDPTTKGGRDVPFMRLPEMMLIMAEGYARAGEPGKAAQALYPLASHRDPEYTLSTKTGENLIEEVMTQRRIELWGEGFRWFDLKRLNMDLDRGPAPRPEVFPNGLIEYWNKDAMPKVVDPEASNYNMYGDGTVTGNGNRYRPAGHRDWQWAIPDKETQLNPLCEPNP	not soluble
MGSDKIHHHHHHGQNQNKIQEAMANYDYETAVELINKEPPTIPLLMQKAKALKGIGSNAEALRSIRQVIAEDSTNQQAHIEAAECCKAMAKYNDALDYYRKAISLNPKNKYARLQFINLLCNTKNYAEAFGESSMMSETDSSAVVLHLQAQSLEGMQQILPAIGCYEVIQDKYPDDYLAAAKLGNLNIVAGYPEYAIQATERYRERDSTNLIVNQQNALAYCHAEQYPTAIKRYEKLCQQGDSSTQTLYYLGVSYYADEYYYEAHACFSKLQKEMEENPNLLYYLGRCCAKTSWKKEGIEHLEKAIELTIPKDSTMIRLYKGLVDCCKLAQDTPKQIQALRELYKYDKTNHKLLYDIAWNYSYQLKDNKSAERYLQAFLKTRKANARKEEPVSEKGELVLGLENYYNAAENWLKDLQKEKFFKEGIPLESQKQ	not soluble
MGSDKIHHHHHHILLDYVESLVLSSVFPKRDFLSPTSNYLNGLKEVLYYQIFPERFANGDPSNDPNGSQSWDVDPAYANLGGDGFFGGDLKGIIDHFDHILELGVEAIYLNPIFESPSSHKYDTEDYLKIDDNFGNDYVFEEFISLAEDSGIKLILDGVFNHTGYDFFAFKDLREREETSPYKDWYFVKRFPIRKIQDRAMTYVGWNGYAYMPKVNSLNEGWQAYVERLVRKYNLEGIGGWRLDVATEVDPLFWSGFFRPLVKSLEKDMILVAEFWGDARSLLRGKTFDSAMNYPFKEAVIEYVFRAGNSAAKFAAMTNLYLNAYPPQTLHSLWNILDSHDTERILTLAFNQVDLLKIAVAIQMTFIGSPVIYYGDEVGMKGGKDPENRAPMLWDEEKWNWEIYDFYKTLIDLRRTHESIKDGEYEVLTAEGPVFSFRRWKDSEEVIVVINPSRENAFFNPEFEGEFCEYLSGRSISFFENKAEITPLTVWILVQED	not soluble
MGSDKIHHHHHHKEQNLDDFEQEYQNYQVNDPLSGYNKAMTSFNVALYDYGLRPVLKGYNAITPEFIRLGARNFFDNLLAPLRFVSNVLQFKFEEAGEEFKRFTANTIMGFGGLMDVASKMGLKKHPADLGTVLAHWGVGSGFHIVLPILGPSNLRDTLTLPATWYASFTAYIDPTWASIAISAYGFGNELSFRLDEIDEIYHNTPNLYPFLRDAYEQRRNELSK	not soluble
MGSDKIHHHHHHKKAVINDSNTPLHLLQPAYQGTYGDLTPEQVKKDIDRVFAYIDKETPARVVDKNTGKVITDYTAMGDEAQLERGAFRLASYEWGVTYSALIAAAETTGDKRYTDYVQNRFRFLAEVAPHFKRVYEEKGKTDSQLLQILTPHALDDAGAVCTAMIKLRLKDESLPVDGLIQNYFDFIINKEYRLADGTFARNRPQRNTLWLDDMFMGIPAVAQMSRYDKEAKNKYLAEAVKQFLQFADRMFIPEKGLYRHGWVESSTDHPAFCWARANGWALLTACELLDVLPEDYPQRPKVMDYFRAHVRGVTALQSGEGFWHQLLDCNDSYLETSATAIYVYCLAHAINKGWIDAIAYGPVAQLGWHAVAGKINEEGQVEGTCVGTGMAFDPAFYYYRPVNVYAAHGYGPVLWAGAEMIRLLNTQHPQMNDSAVQYYQEKQKTTAPIFAVDSE	not soluble
MGSDKIHHHHHHKTEEHEKIEVLYETTLNLIHLLVEQGVIKQEVADEMIRKAEQKAKASQQQAREQGGQPPAGEPKKGEVRVTYVPEHIKKEIRDQLREEVVGQAKQERWGNVNATPEWLDRFTLEGDIRLREQADFFGDRNAPAANFQAIGQQIDNTTKDSHHRERIRMRLGINANVTRGVDLGLRLTTGNVNGPAVTGDLMGGSPTSTLQTLGTYNSKFSFVLDQAYLKLSPWDWLTVSGGRFPNPFFVGTVGNIYTGTIGKAPHTIPTAGVVHTDLLWDADVNFEGLAVNLHPWKKQERTIKPFLNAGIFPLQKINQSETVKAKDKWFYGAQAGIEWVPEGADTKIRLGAAYYDFENISGVRNPNFGDTLFNQTAPLFRQKGNSLFNIDNDGDPTTNLWALASDYKIANATLVADYSRFKPIHVIGTLDYARNVGYDQDRILARTGQDIKPEINAYQARLTVGYPVISERHQWQVLGFYRRSERDSMLDAFTDSNYLLGGTNHKGYTIQGLYGVAHNTWVGLRYMSYDNISGLPLSIDSVNLDLNARF	not soluble
MGSDKIHHHHHHLAIINDYWSTQAEAFTEISVDELTSEKNALWKSILKPFVQTDRKLEILDVGCGAGFFEIFLSCLGHHVTAVDFNGKMLAEARKNIEKLGRPELTKLMQMDAQNLAFQDSVFDIVISRNMTWVLENPQRAYGEWLRVLKPHGKLINFDANWFLHLRDDTARRNFEEGQAAVVEHGFELKESDHGGELDNIFRELPLSGCWRPQWDFMTLANMGCEEIAVKFSLPKGLYDEYYEQLYKAIPTFMLCAVKTG	not soluble

— the DeepSol protein solubility set
